Laboratory results as given in patent US20200109207A1 (CELLDEX THERAPEUTICS, published 2020).
Changes are numbered by the printed parent chain. Blank lines part the entries; values can stand above or below the binder they belong to.

Legend:
[1] = target: T1, recombinant human CD27-FLAG-HIS (human, UniProt P26842 20-191); assay: bifunctional ELISA generally as in Example 16 (CD27-FLAG-HIS coated, PD-L1-msFc detected)
T1 sequence: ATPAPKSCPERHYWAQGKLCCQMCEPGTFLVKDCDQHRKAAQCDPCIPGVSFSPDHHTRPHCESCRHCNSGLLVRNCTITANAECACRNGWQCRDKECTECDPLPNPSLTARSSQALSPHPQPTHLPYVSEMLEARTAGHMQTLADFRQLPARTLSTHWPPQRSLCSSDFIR
Protocol: Binding of bispecific constructs to CD27 and PD-L1 was assessed using a bifunctional ELISA. Antibody AbX is a known anti-PD-L1 monoclonal antibody. In brief, a microtiter plate was coated with human CD27-FLAG-HIS. Dilutions of the bispecific constructs were allowed to bind before adding human PD-L1-msFc that was detected with an HRP labeled goat anti-mouse IgG (Fc specific) antibody.

[2] = target: T2, human CD27 on the cell surface (Ramos cells, human CD3+ T cells, CD27 reporter cell line) (human, UniProt P26842 20-260); assay: flow cytometry, Ramos cells expressing human CD27, antibody 3 µg/ml
T2 construct: also called CD27 on cells
T2 sequence: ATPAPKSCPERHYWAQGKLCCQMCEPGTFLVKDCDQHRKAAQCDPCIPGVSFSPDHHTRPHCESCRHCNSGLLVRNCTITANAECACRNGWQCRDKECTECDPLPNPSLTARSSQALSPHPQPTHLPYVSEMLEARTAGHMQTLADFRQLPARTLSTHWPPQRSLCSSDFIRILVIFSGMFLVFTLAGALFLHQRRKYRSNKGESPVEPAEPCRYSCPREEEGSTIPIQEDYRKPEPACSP
Protocol: Antibodies were tested for binding to a human cell line expressing human CD27 on their surface. Protein A purified human monoclonal antibodies (3 μg/ml) were incubated with Ramos cells expressing human CD27 at room temperature on a plate shaker. After 20 minutes, the cells were washed with PBS containing 0.1% BSA and 0.05% NaN₃ (PBA) and the bound antibodies were detected by incubating the cells with a PE labeled goat anti-human IgG Fc-specific probe. The excess probe was washed from the cells with PBA and the cell associated fluorescence was determined by analysis using a FACSCanto II™ instrument (BD Biosciences, NJ, USA) according to the manufacturer's directions.

[3] = target: T1, recombinant human CD27-FLAG-HIS; assay: ELISA, plate coated with recombinant human CD27-FLAG-HIS
Protocol: Microtiter plates were coated with recombinant human CD27-FLAG-HIS in PBS, and then blocked with 5% bovine serum albumin in PBS. Protein A purified human monoclonal antibodies were added at various concentrations and incubated at 37° C. The plates were washed with PBS/Tween and then incubated with a goat-anti-human IgG Fc-specific polyclonal reagent conjugated to horseradish peroxidase at 37° C. After washing, the plates were developed with HRP substrate, and analyzed at OD 450-650 nm using a microtiter plate reader.

[4] = target: T3, human CD27 ECD with mutated amino acids 85, 87, 88 and 89 (A85S, R87A, N88A and G89A) (human, UniProt P26842 21-188); assay: ELISA, plate coated with mutated CD27 ECD; supernatant of transiently transfected cells expressing mAb 2B3; anti-human IgG Fc-HRP
T3 construct: also called mutated huCD27; mutated CD27 ECD
T3 chain: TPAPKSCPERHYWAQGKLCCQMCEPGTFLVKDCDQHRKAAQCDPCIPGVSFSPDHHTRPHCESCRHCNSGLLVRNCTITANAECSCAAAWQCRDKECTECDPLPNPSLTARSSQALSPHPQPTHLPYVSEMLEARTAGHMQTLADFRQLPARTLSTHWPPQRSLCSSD
Protocol: (§1) The full length wild type extracellular domain (ECD) of human CD27 or human CD27 with mutated amino acids 85, 87, 88, and 89 (A85S, R87A, N88A and G89A; see FIG. 34) were coated to a plate, then blocked. Supernatant from transiently transfected cells expressing mAb 2B3 was added and binding was detected with an HRP conjugated goat anti-human IgG Fc polyclonal antibody.

[5] = target: T4, full length wild type extracellular domain (ECD) of human CD27 (human, UniProt P26842 21-188); assay: ELISA, plate coated with wild type CD27 ECD; supernatant of cells expressing mAb 2B3; anti-human IgG Fc-HRP
T4 construct: also called wild type huCD27; ECD of huCD27
T4 sequence: T3 chain with S85A, A87R, A88N, A89G
Protocol: as §1

- binding result [1]: binds
B1: CDX-527 (9H9×2B3 bispecific antibody: anti-PD-L1 IgG1 9H9 with anti-CD27 2B3 scFv) (bispecific antibody)
heavy: not shown
light: DIQMTQSPSTLSASVGDRVTITCRASQSISGWLAWYQQKPGKAPKLLIYKASSLESGVPSRFSGSGSGTEFTLTISSLQPDDFATYYCQQYYGSSRTFGQGTNVEIKRTVAAPSVFIFPPSDEQLKSGTASVVCLLNNFYPREAKVQWKVDNALQSGNSQESVTEQDSKDSTYSLSSTLTLSKADYEKHKVYACEVTHQGLSSPVTKSFNRGEC

- binding result [2]: binds
- binding result [3]: binds
B2: anti-CD27 human monoclonal antibody 3C2 (antibody, V domains shown)
VH: QAQLQESGPGLVKPSETLSLTCTVSTGSISGYYWSWIRQPPGKGLEWIGYNYYSGSTNYNPSLKSRVTISIDTSKNQFSLKLNSVTAADTAVYYCARYPLIRGAFDYWGQGTLVTVSS
VL: not shown
notes: hybridoma supernatant (rat constant regions) in the cynomolgus CD27 ELISA

- binding result [2]: binds
- binding result [4]: no binding
- binding result [5]: binds
- binding result [3]: binds
B3: anti-CD27 human monoclonal antibody 2B3 (antibody, V domains shown)
VH: QVQLVQSGAEVKKPGASVKVSCKASGYTFTGYYIHWVRQAPGQGLEWMGWINPNSGGTNSAQKFQDRVTITRVTSINTAYMELSRLRSDDTAVYFCARDRLVLPWFGEIFPDAFDIWGQGTLVTVSS
VL: EIVMTQSPATLSVSPGERATLSCRASQSIRSNLAWYQQKPGQAPRLLIYGASTRATGIPARFSGSGSGTEFTLTISSLQSENFAVYYCQQYNNWPLTFGGGTKVEIK
notes: In the cynomolgus CD27 ELISA hybridoma supernatants were used (human V regions with rat constant regions); also called mAb 2B3
